{"source": "paper PMC9154745", "target": "human cannabinoid receptor type 2 (CB2) (human) (UniProt P34972)", "sequence (P34972 whole entry)": "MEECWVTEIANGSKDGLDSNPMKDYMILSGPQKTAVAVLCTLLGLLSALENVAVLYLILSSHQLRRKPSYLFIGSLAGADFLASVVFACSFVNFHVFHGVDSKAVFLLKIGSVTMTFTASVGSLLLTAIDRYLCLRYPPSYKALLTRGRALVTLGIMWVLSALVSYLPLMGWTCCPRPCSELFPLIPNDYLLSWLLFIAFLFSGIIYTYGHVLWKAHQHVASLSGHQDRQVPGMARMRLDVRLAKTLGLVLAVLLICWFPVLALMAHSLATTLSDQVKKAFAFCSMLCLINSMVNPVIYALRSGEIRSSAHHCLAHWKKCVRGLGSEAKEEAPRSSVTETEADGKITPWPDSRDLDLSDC", "data": [{"substance": "osteogenic growth peptide (OGP), the 5-amino-acid cellular activator derived from OGP(1-14) (from UniProt P62805 99-103)", "values": [{"measurement": "logEC50 of half-maximal inhibition of FSK-stimulated cAMP in CHO-hCB2 cells (bell-shaped dose-response curve, two independent experiments)", "value": -12.1}]}]}
